Source: article PMC11642994, “AGC family kinase of Entamoeba histolytica: Decoding the members biochemically” (PLOS Pathogens, 2024)

Experiments:
[1] = substrate: Nc1ncnc2c1ncn2[C@@H]1O[C@H](COP(=O)(O)OP(=O)(O)OP(=O)(O)O)[C@@H](O)[C@H]1O; assay: ADP-Glo luminescent kinase assay with 0-1000 uM ATP, 50 uM EhRhoGEF peptide as co-substrate and 20 uM kinase, pH 7.5, 30 °C, Michaelis-Menten fit.; format: biochemical
Experimental: (§1) Fig 6 Graphs representing the Michaelis-Menten kinetics of EhAGCK1 and EhAGCK2. Panel A-D represents the Km and Vmax for peptide substrates, assays were performed in the presence of 20 μM EhAGCK1 (WT and KDD1) and EhAGCK2 (WT and KDD2) proteins were assayed in the presence of 250 μM ATP and serial dilutions (0 μM to 200 μM) of EhRhoGEF, EhCoactosin, and HsGSK3 peptide substrates. […] Panel E-H represents the Km and Vmax for ATP, assays were assessed in the presence of 50 μM peptide substrates (EhRhoGEF, EhCoactosin, and HsGSK3), serial dilution(0 μM to 1000 μM) of ATP, and 20 μM of the proteins EhAGCK1 (WT, and KDD1) and EhAGCK2 (WT, and KDD2). […] Relative luminescence unit (RLU) values are converted to μM/min using the method described in the Materials and Methods section. […]
(§2) Further, we determined the Km and Vmax values for ATP as it serves a vital metabolic molecule and substrate crucial for kinase activity, determining ATP Km and Vmax a key biochemical parameters for all kinases. […] Additionally, we compared previously determined Km and Vmax values of human Akt proteins in the presence of GSK3 peptide with our kinase protein results, which are presented in Table 1.
(§3) The phosphorylation activity of kinases was measured using the ADP-Glo kinase assay kit according to the manufacturer’s protocol with few modifications (Promega, Madison, WI, Catalogue number V6930). […]

[2] = substrate: Nc1ncnc2c1ncn2[C@@H]1O[C@H](COP(=O)(O)OP(=O)(O)OP(=O)(O)O)[C@@H](O)[C@H]1O; assay: ADP-Glo luminescent kinase assay with 0-1000 uM ATP, 50 uM HsGSK3 peptide (GRPRTTSFAESCK) as co-substrate and 20 uM kinase, pH 7.5, 30 °C, Michaelis-Menten fit.; format: biochemical
Experimental: as §1, §2, §3

[3] = molecular target: T1, KDD1, kinase-dead EhAGCK1 (K147A and D241A) (Entamoeba histolytica, UniProt C4M2W0 1-433, K147A | D241A); assay: MST; His-tagged kinase labelled with RED-tris-NTA 2nd Generation dye, kept constant (50 nM by the legend); unlabelled peptide in 16 1:1 dilutions, 500 uM to 153 nM as printed; 50 mM Tris-Cl pH 8, 150 mM NaCl, 1 mM beta-ME, 5% glycerol; 25 C; Monolith NT.115, 50% LED, medium MST power; settings: both partners purified
T1 construct: source: E. coli C41(DE3), purified (Ni2+-NTA)
T1 sequence: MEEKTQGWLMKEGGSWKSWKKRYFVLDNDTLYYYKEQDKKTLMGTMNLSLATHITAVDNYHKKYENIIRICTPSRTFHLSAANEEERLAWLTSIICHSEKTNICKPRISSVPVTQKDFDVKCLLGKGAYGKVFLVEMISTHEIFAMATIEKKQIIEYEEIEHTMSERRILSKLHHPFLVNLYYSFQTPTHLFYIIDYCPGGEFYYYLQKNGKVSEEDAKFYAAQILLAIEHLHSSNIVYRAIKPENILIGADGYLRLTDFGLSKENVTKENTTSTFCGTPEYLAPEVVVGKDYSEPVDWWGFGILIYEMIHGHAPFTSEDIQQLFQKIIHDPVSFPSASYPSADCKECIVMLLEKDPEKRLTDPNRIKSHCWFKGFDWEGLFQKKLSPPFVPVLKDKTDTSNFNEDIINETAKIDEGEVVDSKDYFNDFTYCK

[4] = molecular target: T2, KDD2, kinase-dead EhAGCK2 (K147A and D242A) (Entamoeba histolytica, UniProt C4M3C2 1-434, K147A | D242A); assay: as above; settings: both partners purified
T2 construct: source: E. coli C41(DE3), purified (Ni2+-NTA)
T2 sequence: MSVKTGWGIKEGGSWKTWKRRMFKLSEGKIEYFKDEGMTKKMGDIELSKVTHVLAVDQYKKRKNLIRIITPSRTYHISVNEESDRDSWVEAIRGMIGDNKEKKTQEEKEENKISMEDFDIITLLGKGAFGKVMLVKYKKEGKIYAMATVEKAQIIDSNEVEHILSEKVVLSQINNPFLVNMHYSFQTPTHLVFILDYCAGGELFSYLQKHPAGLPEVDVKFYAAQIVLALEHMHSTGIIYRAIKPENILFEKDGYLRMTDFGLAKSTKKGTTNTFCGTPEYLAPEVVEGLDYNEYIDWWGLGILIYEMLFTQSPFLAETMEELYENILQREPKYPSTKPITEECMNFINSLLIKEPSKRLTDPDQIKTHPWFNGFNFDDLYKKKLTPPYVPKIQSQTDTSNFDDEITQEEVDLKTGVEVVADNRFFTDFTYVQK

[5] = molecular target: T3, EhAGCK2 WT (Entamoeba histolytica AGC family kinase 2, EHI_053040), full-length recombinant His-tagged protein (Entamoeba histolytica, UniProt C4M3C2 1-434); assay: as above; settings: both partners purified
T3 construct: source: E. coli C41(DE3), purified (Ni2+-NTA)
T3 sequence: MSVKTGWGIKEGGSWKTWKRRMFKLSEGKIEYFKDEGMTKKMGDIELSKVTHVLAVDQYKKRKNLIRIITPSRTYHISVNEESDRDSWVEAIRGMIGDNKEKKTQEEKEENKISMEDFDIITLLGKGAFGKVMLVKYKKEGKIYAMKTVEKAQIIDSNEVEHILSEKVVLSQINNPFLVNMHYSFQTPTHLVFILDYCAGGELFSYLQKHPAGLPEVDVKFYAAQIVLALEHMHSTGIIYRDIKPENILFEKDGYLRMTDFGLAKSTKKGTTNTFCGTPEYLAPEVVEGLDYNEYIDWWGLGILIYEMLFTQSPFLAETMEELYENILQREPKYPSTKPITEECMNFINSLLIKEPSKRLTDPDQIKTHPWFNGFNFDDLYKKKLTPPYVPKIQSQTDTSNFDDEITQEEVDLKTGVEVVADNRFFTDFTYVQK

[6] = molecular target: T4, EhAGCK1 WT (Entamoeba histolytica AGC family kinase 1, EHI_188930), full-length recombinant His-tagged protein (Entamoeba histolytica, UniProt C4M2W0 1-433); assay: as above; settings: both partners purified
T4 construct: also called His-EhAGCK1; source: E. coli C41(DE3), purified (Ni2+-NTA)
T4 sequence: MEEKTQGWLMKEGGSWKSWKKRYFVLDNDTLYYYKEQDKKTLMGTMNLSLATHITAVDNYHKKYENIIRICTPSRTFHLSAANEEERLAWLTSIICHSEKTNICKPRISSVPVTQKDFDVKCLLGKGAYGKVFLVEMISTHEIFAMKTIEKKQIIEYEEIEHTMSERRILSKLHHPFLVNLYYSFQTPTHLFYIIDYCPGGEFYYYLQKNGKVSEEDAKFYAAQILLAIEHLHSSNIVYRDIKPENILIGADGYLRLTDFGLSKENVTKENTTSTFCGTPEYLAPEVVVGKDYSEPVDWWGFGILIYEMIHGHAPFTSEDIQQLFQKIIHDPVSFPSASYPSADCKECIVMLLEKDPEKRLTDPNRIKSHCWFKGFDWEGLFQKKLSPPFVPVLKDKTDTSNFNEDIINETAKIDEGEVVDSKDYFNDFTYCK

[7] = substrate: Nc1ncnc2c1ncn2[C@@H]1O[C@H](COP(=O)(O)OP(=O)(O)OP(=O)(O)O)[C@@H](O)[C@H]1O; assay: ADP-Glo luminescent kinase assay with 0-1000 uM ATP, 50 uM EhCoactosin peptide as co-substrate and 20 uM kinase, pH 7.5, 30 °C, Michaelis-Menten fit.; format: biochemical
Experimental: as §1, §2, §3

Binder	Km [1] [µM]	Km [2] [μM uM]	Kd [3] [µM]	Kd [4] [µM]	Kd [5] [µM]	Kd [6] [µM]	Km [7] [µM]
EhAGCK1 WT (Entamoeba histolytica HM-1:IMSS) (protein, full-length, His-tagged (pCold), expressed in E. coli C41(DE3)) MEEKTQGWLMKEGGSWKSWKKRYFVLDNDTLYYYKEQDKKTLMGTMNLSLATHITAVDNYHKKYENIIRICTPSRTFHLSAANEEERLAWLTSIICHSEKTNICKPRISSVPVTQKDFDVKCLLGKGAYGKVFLVEMISTHEIFAMKTIEKKQIIEYEEIEHTMSERRILSKLHHPFLVNLYYSFQTPTHLFYIIDYCPGGEFYYYLQKNGKVSEEDAKFYAAQILLAIEHLHSSNIVYRDIKPENILIGADGYLRLTDFGLSKENVTKENTTSTFCGTPEYLAPEVVVGKDYSEPVDWWGFGILIYEMIHGHAPFTSEDIQQLFQKIIHDPVSFPSASYPSADCKECIVMLLEKDPEKRLTDPNRIKSHCWFKGFDWEGLFQKKLSPPFVPVLKDKTDTSNFNEDIINETAKIDEGEVVDSKDYFNDFTYCK	125.4	241.7 ±22.2					
GRPRTTSFAESCK (also called human GSK3 peptide substrate; source: synthetic peptide) [human GSK3 (HsGSK3) peptide]			1080	2.38	0.0848	2.62	
EhAGCK2 WT (Entamoeba histolytica HM-1:IMSS) (protein, full-length, His-tagged (pCold), expressed in E. coli C41(DE3)) MSVKTGWGIKEGGSWKTWKRRMFKLSEGKIEYFKDEGMTKKMGDIELSKVTHVLAVDQYKKRKNLIRIITPSRTYHISVNEESDRDSWVEAIRGMIGDNKEKKTQEEKEENKISMEDFDIITLLGKGAFGKVMLVKYKKEGKIYAMKTVEKAQIIDSNEVEHILSEKVVLSQINNPFLVNMHYSFQTPTHLVFILDYCAGGELFSYLQKHPAGLPEVDVKFYAAQIVLALEHMHSTGIIYRDIKPENILFEKDGYLRMTDFGLAKSTKKGTTNTFCGTPEYLAPEVVEGLDYNEYIDWWGLGILIYEMLFTQSPFLAETMEELYENILQREPKYPSTKPITEECMNFINSLLIKEPSKRLTDPDQIKTHPWFNGFNFDDLYKKKLTPPYVPKIQSQTDTSNFDDEITQEEVDLKTGVEVVADNRFFTDFTYVQK		291± 74.4					92.06
